The test system of data set [1] is HeLa Kyoto. As to the kind of experiment: solubility in G1/S (NP-40 vs SDS abundance) (log2 ratio); higher = more soluble. Conditions: cell cycle stage: G1/S.
For data set [2], the system named is HeLa Kyoto. As to the kind of experiment: melting temperature (median over replicates), in situ; higher = more thermally stable.
In data set [3] the test system is HeLa Kyoto. As to the kind of experiment: solubility change mitosis vs G1/S (difference of NP-40 vs SDS log2 ratios) (log2 ratio difference); higher = more soluble in mitosis.
Data set [4] relates to HeLa Kyoto. As to the kind of experiment: thermal stability score vs G1/S (z-score of summed log2 fold changes over temperatures); higher = more thermally stable than in G1/S.
Setting [5] is: cell cycle stage: early G1 (4.5 h after nocodazole release).
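Throughout, for melting temperature (median over replicates), in situ: HeLa Kyoto cells synchronized by double thymidine or nocodazole block, proteins quantified by TMT10plex mass spectrometry, three independent biological replicates.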
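Throughout, for solubility change mitosis vs G1/S (difference of NP-40 vs SDS log2 ratios): synchronized HeLa Kyoto cells (double thymidine block for G1/S, nocodazole release for mitosis), protein amounts in NP-40 versus SDS lysates quantified by mass spectrometry, three biological replicates.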
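Throughout, for solubility in G1/S (NP-40 vs SDS abundance): HeLa Kyoto cells arrested at G1/S by double thymidine block, proteins quantified by TMT10plex mass spectrometry in mild NP-40 versus SDS extracts, three biological replicates.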
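Throughout, for thermal stability score vs G1/S (z-score of summed log2 fold changes over temperatures): synchronized HeLa Kyoto cells, proteins quantified by TMT10plex mass spectrometry, three biological replicates, mitosis taken 0.5 h after nocodazole release, G1/S directly after double thymidine block.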

Take “MDDREDLVYQAKLAEQAERYDEMVESMKKVAGMDVELTVEERNLLSVAYKNVIGARRASWRIISSIEQKEENKGGEDKLKMIREYRQMVETELKLICCDILDVLDKHLIPAANTGESKVFYYKMKGDYHRYLAEFATGNDRKEAAENSLVAYKAASDIAMTELPPTHPIRLGLALNFSVFYYEILNSPDRACRLAKAAFDDAIAELDTLSEESYKDSTLIMQLLRDNLTLWTSDMQGDGEEQNKEALQDVEDENQ [YWHAE]”: in the data set with HeLa Kyoto [1], the “solubility in G1/S (log2)” value was determined as 0.336. The values for the melting temperature in the data set on HeLa Kyoto [2] (cell cycle stage: G1/S) and with HeLa Kyoto [2] (cell cycle stage: mitosis) were 55.3 °C and 55.8 °C, respectively. Further, the “solubility change mitosis (log2)” value with HeLa Kyoto [3] was 0.181. For the same sequence, the thermal stability score with HeLa Kyoto [4] (setting [5]) is -1.18; with HeLa Kyoto [4] (cell cycle stage: mitosis), -2.71.

In the case of “MDEAGSSASGGGFRPGVDSLDEPPNSRIFLVISKYTPESVLRERFSPFGDIQDIWVVRDKHTKESKGIAFVKFARSSQACRAMEEMHGQCLGPNDTKPIKVFIAQSRSSGSHRDVEDEELTRIFVMIPKSYTEEDLREKFKVYGDIEYCSIIKNKVTGESKGLGYVRYLKPSQAAQAIENCDRSFRAILAEPKNKASESSEQDYYSNMRQEALGHEPRVNMFPFVGEQQSEFSSFDKNDSRGQEAISKRLSVVSRVPFTEEQLFSIFDIVPGLEYCEVQRDPYSNYGHGVVQYFNVASAIYAKYKLHGFQYPPGNRIGVSFIDDGSNATDLLRKMATQMVAAQLASMVWNNPSQQQFMQFGGSSGSQLPQIQTDVVLPSCKKKAPAETPVKERLFIVFNPHPLPLDVLEDIFCRFGNLIEVYLVSGKNVGYAKYADRISANDAIATLHGKILNGVRLKVMLADSPREESNKRQRTY [RBM45]”, the “solubility in G1/S (log2)” value in the data set with HeLa Kyoto [1] was determined as 0.000113. Further, the melting temperature in the data set with HeLa Kyoto [2] (cell cycle stage: G1/S) was determined as 48.4 °C; in the data set on HeLa Kyoto [2] (cell cycle stage: mitosis), 50 °C. Besides, the “solubility change mitosis (log2)” value in the data set with HeLa Kyoto [3] is 0.448. The results for the thermal stability score in the data set on HeLa Kyoto [4] (setting [5]) and in the data set with HeLa Kyoto [4] (cell cycle stage: mitosis) were 0.337 and 0.251, respectively.

Regarding “MDELAGGGGGGPGMAAPPRQQQGPGGNLGLSPGGNGAAGGGGPPASEGAGPAAGPELSRPQQYTIPGILHYIQHEWARFEMERAHWEVERAELQARIAFLQGERKGQENLKKDLVRRIKMLEYALKQERAKYHKLKYGTELNQGDLKMPTFESEETKDTEAPTAPQNSQLTWKQGRQLLRQYLQEVGYTDTILDVRSQRVRSLLGLSNSEPNGSVETKNLEQILNGGESPKQKGQEIKRSSGDVLETFNFLENADDSDEDEENDMIEGIPEGKDKHRMNKHKIGNEGLAADLTDDPDTEEALKEFDFLVTAEDGEGAGEARSSGDGTEWDKDDLSPTAEVWDVDQGLISKLKEQYKKERKGKKGVKRANRTKLYDMIADLGDDELPHIPSGIINQSRSASTRMTDHEGARAEEAEPITFPSGGGKSFIMGSDDVLLSVLGLGDLADLTVTNDADYSYDLPANKDAFRKTWNPKYTLRSHFDGVRALAFHPVEPVLVTASEDHTLKLWNLQKTVPAKKSASLDVEPIYTFRAHIGPVLSLAISSNGEQCFSGGIDATIQWWNMPSPSVDPYDTYEPNVLAGTLVGHTDAVWGLAYSGIKNQLLSCSADGTVRLWNPQEKLPCICTYNGDKKHGIPTSVDFIGCDPAHMVTSFNTGSAVIYDLETSQSLVILSSQVDSGLQSNNHINRVVSHPTLPVTITAHEDRHIKFFDNKTGKMIHSMVAHLDAVTSLAVDPNGIYLMSGSHDCSIRLWNLDSKTCVQEITAHRKKLDESIYDVAFHSSKAYIASAGADALAKVFV [STRN3]”, in the data set with HeLa Kyoto [1], the “solubility in G1/S (log2)” value is -0.0799. Besides, the melting temperature in the data set with HeLa Kyoto [2] (cell cycle stage: G1/S) is 52.1 °C; in the data set with HeLa Kyoto [2] (cell cycle stage: mitosis) it was 52.4 °C. Also, the “solubility change mitosis (log2)” value in the data set with HeLa Kyoto [3] is -0.0757. For the same sequence, the thermal stability score is -0.00707 with HeLa Kyoto [4] (setting [5]) and -0.722 in the data set with HeLa Kyoto [4] (cell cycle stage: mitosis).

Consider “MDEQAGPGVFFSNNHPGAGGAKGLGPLAEAAAAGDGAAAAGAARAQYSLPGILHFLQHEWARFEVERAQWEVERAELQAQIAFLQGERKGQENLKKDLVRRIKMLEYALKQERAKYHKLKYGTELNQGDMKPPSYDSDEGNETEVQPQQNSQLMWKQGRQLLRQYLQEVGYTDTILDVKSKRVRALLGFSSDVTDREDDKNQDSVVNGTEAEVKETAMIAKSELTDSASVLDNFKFLESAAADFSDEDEDDDVDGREKSVIDTSTIVRKKALPDSGEDRDTKEALKEFDFLVTSEEGDNESRSAGDGTDWEKEDQCLMPEAWNVDQGVITKLKEQYKKERKGKKGVKRPNRSKLQDMLANLRDVDELPSLQPSVGSPSRPSSSRLPEHEINRADEVEALTFPPSSGKSFIMGADEALESELGLGELAGLTVANEADSLTYDIANNKDALRKTWNPKFTLRSHFDGIRALAFHPIEPVLITASEDHTLKMWNLQKTAPAKKSTSLDVEPIYTFRAHKGPVLCVVMSSNGEQCYSGGTDGLIQGWNTTNPNIDPYDSYDPSVLRGPLLGHTDAVWGLAYSAAHQRLLSCSADGTLRLWNTTEVAPALSVFNDTKELGIPASVDLVSSDPSHMVASFSKGYTSIFNMETQQRILTLESNVDTTANSSCQINRVISHPTLPISITAHEDRHIKFYDNNTGKLIHSMVAHLEAVTSLAVDPNGLYLMSGSHDCSIRLWNLESKTCIQEFTAHRKKFEESIHDVAFHPSKCYIASAGADALAKVFV [STRN]”, for which the “solubility in G1/S (log2)” value in the data set on HeLa Kyoto [1] amounted to 0.0488. Besides, the figures for the melting temperature in the data set with HeLa Kyoto [2] (cell cycle stage: G1/S) and in the data set with HeLa Kyoto [2] (cell cycle stage: mitosis) were 52.4 °C and 52.3 °C, respectively. Moreover, the “solubility change mitosis (log2)” value with HeLa Kyoto [3] was -0.134. In addition, the thermal stability score in the data set with HeLa Kyoto [4] (setting [5]) is 0.0936; in the data set on HeLa Kyoto [4] (cell cycle stage: mitosis), -0.463.

As for “MDGKQGGMDGSKPAGPRDFPGIRLLSNPLMGDAVSDWSPMHEAAIHGHQLSLRNLISQGWAVNIITADHVSPLHEACLGGHLSCVKILLKHGAQVNGVTADWHTPLFNACVSGSWDCVNLLLQHGASVQPESDLASPIHEAARRGHVECVNSLIAYGGNIDHKISHLGTPLYLACENQQRACVKKLLESGADVNQGKGQDSPLHAVARTASEELACLLMDFGADTQAKNAEGKRPVELVPPESPLAQLFLEREGPPSLMQLCRLRIRKCFGIQQHHKITKLVLPEDLKQFLLHL [ASB9]”, the “solubility in G1/S (log2)” value in the data set on HeLa Kyoto [1] was 0.762. In addition, the values for the melting temperature with HeLa Kyoto [2] (cell cycle stage: G1/S) and in the data set on HeLa Kyoto [2] (cell cycle stage: mitosis) were 55 °C and 54.2 °C, respectively. Moreover, in the data set with HeLa Kyoto [3], the “solubility change mitosis (log2)” value is -0.182. The values for the thermal stability score in the data set with HeLa Kyoto [4] (setting [5]) and in the data set with HeLa Kyoto [4] (cell cycle stage: mitosis) were -0.645 and -1.33, respectively.

The values are drawn from the supplement of paper PMC5998384.
